target: segment III of MSLN expressed on HEK293T cells (UniProt Q13421); test: flow cytometry on HEK293T cells expressing MSLN segment III, anti-human IgG PE secondary, fitted curve
Sequence (Q13421 495-606 limits assumed): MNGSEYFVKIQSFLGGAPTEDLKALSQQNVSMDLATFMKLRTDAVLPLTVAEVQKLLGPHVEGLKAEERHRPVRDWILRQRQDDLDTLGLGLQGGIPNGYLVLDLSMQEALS

Row | EC50 | Binder
1 | 2.44 nM | YP218-IgG4 (antibody, from another filing, V domains shown) VH: QQQLEESGGGLVKPEGSLTLTCKASGFDLGFYFYACWVRQAPGKGLEWIACIYTAGSGSTYYASWAKGRFTISKASSTTVTLQMTSLAAADTATYFCARSTANTRSTYYLNLWGPGTLVTVSS VL: DVVMTQTPASVSEPVGGTVTIKCQASQRISSYLSWYQQKPGQRPKLLIFGASTLASGVPSRFKGSGSGTEYTLTISDLECADAATYYCQSYAYFDSNNWHAFGGGTEVVVRT

target: MSLN on SKOV3 and Aspc-1 tumor cells (UniProt Q13421); test: flow cytometry on SKOV3 tumor cells, anti-human IgG PE secondary, fitted curve
Sequence (Q13421 other isoform, or with tags, fused parts or gaps limits assumed): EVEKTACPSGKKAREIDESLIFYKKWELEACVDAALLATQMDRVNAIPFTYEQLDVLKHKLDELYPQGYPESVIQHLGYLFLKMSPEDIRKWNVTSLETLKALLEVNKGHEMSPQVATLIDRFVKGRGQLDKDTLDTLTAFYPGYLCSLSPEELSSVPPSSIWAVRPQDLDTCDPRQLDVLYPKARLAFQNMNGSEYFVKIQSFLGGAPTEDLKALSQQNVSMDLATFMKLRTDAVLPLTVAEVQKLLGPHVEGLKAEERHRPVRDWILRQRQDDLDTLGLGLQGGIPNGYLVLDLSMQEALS

Row | EC50 | Binder
2 | 6.96 nM | YP218-IgG4 (antibody, from another filing, V domains shown) VH: QQQLEESGGGLVKPEGSLTLTCKASGFDLGFYFYACWVRQAPGKGLEWIACIYTAGSGSTYYASWAKGRFTISKASSTTVTLQMTSLAAADTATYFCARSTANTRSTYYLNLWGPGTLVTVSS VL: DVVMTQTPASVSEPVGGTVTIKCQASQRISSYLSWYQQKPGQRPKLLIFGASTLASGVPSRFKGSGSGTEYTLTISDLECADAATYYCQSYAYFDSNNWHAFGGGTEVVVRT

target: MSLN·His protein (human) (UniProt Q13421); test: SPR (Biacore), antibody captured on protein A, MSLN·His as analyte
Sequence (Q13421 other isoform, or with tags, fused parts or gaps limits assumed): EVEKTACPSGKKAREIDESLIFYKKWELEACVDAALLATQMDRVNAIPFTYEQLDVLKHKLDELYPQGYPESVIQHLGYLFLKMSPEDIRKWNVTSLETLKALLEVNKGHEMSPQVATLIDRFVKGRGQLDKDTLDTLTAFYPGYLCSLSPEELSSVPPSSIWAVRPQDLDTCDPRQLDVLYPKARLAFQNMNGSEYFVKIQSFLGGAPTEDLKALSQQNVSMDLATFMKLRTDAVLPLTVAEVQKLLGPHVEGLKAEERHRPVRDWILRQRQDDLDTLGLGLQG

Row | Kd | koff | kon | Binder
3 | 3.1 nM | 0.000123 s⁻¹ | 40200 M⁻¹ s⁻¹ | YP218-IgG4 (antibody, from another filing, V domains shown) VH: QQQLEESGGGLVKPEGSLTLTCKASGFDLGFYFYACWVRQAPGKGLEWIACIYTAGSGSTYYASWAKGRFTISKASSTTVTLQMTSLAAADTATYFCARSTANTRSTYYLNLWGPGTLVTVSS VL: DVVMTQTPASVSEPVGGTVTIKCQASQRISSYLSWYQQKPGQRPKLLIFGASTLASGVPSRFKGSGSGTEYTLTISDLECADAATYYCQSYAYFDSNNWHAFGGGTEVVVRT
4 | 2270 nM | 0.000739 s⁻¹ | 326 M⁻¹ s⁻¹ | M2339-z1-1 (antibody, part only; not given: constant region, IgG4, part only) heavy, part: QLQLGASGGGLVQPGGSLRLSCALSGFTLRELDEFAIGWFRQAPGKEREGVSCISGTGGITHYADSVKGRFTISRDIAKNTVYLQMNSLNSEDTAVYYCAADERCTDRLIRPPTYWGQGTQVTVSS

target: MSLN on SKOV3 and Aspc-1 tumor cells (UniProt Q13421); test: flow cytometry on Aspc-1 tumor cells, anti-human IgG PE secondary, fitted curve

Row | EC50 | Binder
5 | 4.24 nM | YP218-IgG4 (antibody, from another filing, V domains shown) VH: QQQLEESGGGLVKPEGSLTLTCKASGFDLGFYFYACWVRQAPGKGLEWIACIYTAGSGSTYYASWAKGRFTISKASSTTVTLQMTSLAAADTATYFCARSTANTRSTYYLNLWGPGTLVTVSS VL: DVVMTQTPASVSEPVGGTVTIKCQASQRISSYLSWYQQKPGQRPKLLIFGASTLASGVPSRFKGSGSGTEYTLTISDLECADAATYYCQSYAYFDSNNWHAFGGGTEVVVRT

target: Negative control (amino acid sequence shown in SEQ ID NO: 2 in CN106046152A); test: ELISA, negative control well, TG1 supernatant

Row | Binder | ELISA (OD450)
6 | M344 (VHH) VHH: QVQLVESGGGLVQSGGSLRLSCVASGSAFSFDAMGWYRQFSATRRERQLVVATSRDGRTYYADSVKGRFTATRDNSKNSLYLEMNSLKPEDTAIYYCAAGDDPKNYSWGQGTQVTVSS | 0.0082 OD450
7 | M137 (VHH) VHH: QVQLVESGGGLVQAGGSLSLSCAASGSLSSINAMGWYRQLPEMRQLVATMGSDGKTYYADSVKGRFTISRDYAKYTVSLQMNNLRPEDTAIYYCAADRFGAPIHDVDYWGKGTLVTVSV | 0.0087 OD450
8 | M044 (VHH) VHH: QVQVVESGGGFVQAGGSLRLSCAASTPIISIAYMGWYRQISEKERQLVATINSGGKTYYADSVKGRFTISRDNAKNTLYLQMNMLKPEDTGMYYCAASNKDYNDYDPDWGQGTQVTVSS | 0.0083 OD450
9 | M005 (VHH) VHH: EVQLVESGGGWVQSGGSLRLACAASGSSFGLNVVGWYRQAPDKQRELVASIGNGGRTTDYADSVKGRFTISSDNAKNTVFLQMNDLKPEDTAVYYCHLRASVTKGYWGQGTQVTVSS | 0.0072 OD450
10 | M126 (VHH) VHH: EVQLVESGGGWVQSGGSLRLACAASGDSFGLNVVGWYRLAPDKQRELVASIGNGGRTTDYADSVKGRFTISSDNAKNTVFLQMNDLKPEDTAMYYCHLRVSVTEGYWGQGTQVTVSS | 0.0068 OD450
11 | M047 (VHH) VHH: QVQLVETGGGSVQAGGSLRLSCAASGSIASIDAMGWYRQVPGKEWERELVATISSSNSDNKYYKDSVKGRFTISTNIAKNTWYLQMNNLKPEDTAMYYCAAEDYDTKDRFWGQGTQVTVSS | 0.018 OD450
12 | M032 (VHH) VHH: EVQLVESGGGSVQAGGSLKISCAASGSVIDIGAMGWYRHITEKERKLVATINAGGNTYYADSVKGRFTISRDNAKYTVYLQMNSLKPEDTAMYYCAAEDINYTGTEAYYWGQGTQVTVSS | 0.0076 OD450
13 | M119 (VHH) VHH: EVQLVESGGGLVQPGGSLRLSCVASGSDLSFDAMGWYRQFSATVRERQLVVATSRDGRIYYGDSVKGRFTASRDNLKNSVDLEMNNLKPEDTAIYYCAAGDDPKNYDWGPGTQVTVSS | 0.0071 OD450
14 | M224 (VHH) VHH: QVQLVESGGGLVQPGGSLRLSCAASGFTFHYYAIGWFRQAPGKEREGVSCISSSGDSTWFSDSVKGRFTVSRDNAKNIVHLQMNNLKPEDTAVYYCAGTTRSGYVCYDAEPYDSWGQGTQVTVSS | 0.0074 OD450
15 | M012 (VHH) VHH: QVQLVESGGDLVQTGGSLRLSCVVSGSTFAINAMGWYRQAPGKERELVAAISSGGDSTHYADDVKGRFTISRDNAENTMYLQMKSLKPEDTAVYVCNARGCRDFHNPQALCVLRDYWGQGTQVTVSS | 0.0075 OD450
16 | M143 (VHH) VHH: EVQLVESGGGLVQAGGSLRLSCSASEKTFSIKYMGYYRQGPGIERKLVATIDTDGKTWYADSVKGRFTISRENGENEIGLEMNRLKPEDTAMYYCAGETGTYPKPEYWGQGTQVTVSS | 0.0085 OD450
17 | M001 (VHH) VHH: EVQLVESGGGLVQAGGSLRLSCAASGSIFNINAMGWYRQAPGKEWERELVATISSSNSDNTYYKDSVKGRFTISTNTAKNTWYLQMNSLKPEDTAMYYCAAENYDRKDRYWGQGTQVTVSS | 0.0184 OD450
18 | M182 (VHH) VHH: QVQLVESGGGSVQAGGSLTLSCAASGAVSSINAMGWYRQTPEKVRQLVATMGSGGNTYYAASVKGRFTISRDYAKNTVALQMNHLLPEDTAVYYCAADRFGADIREVDYWGKGTQVTVSS | 0.0075 OD450
19 | M010 (VHH) VHH: QVQLVESGGGLVQAGGSLRLSCAASGSVSSINAMGWYRQGTGEVRKLVATMGSGGNTYYADSVKGRFFITRDYSKNTVSLQMNNLTPEDSATYYCAADRFGASIHEVDYWGKGTLVTVSS | 0.007 OD450

Now from value to binder:

Row | ELISA (OD450) | Binder
20 | 0.0071 OD450 | M210 (VHH) VHH: QVQLVESGGGLVQPGGSLRLSCAASGITLDNYAIAWFRQAPGKKREGVSCISSNGNTYYQPSVKGRFTIARDNAKNTVYLHMNNLNPEDTAVYYCQVGQFSSSTTPVQAMSVMSLYADWGQGTQVTVSS
21 | 0.007 OD450 | M129 (VHH) VHH: QVQLVESGGGSAQAGGSLILSCVASANLFTIDALGWYRQAPGPKRELVAAISSGGNKYYADAVKGRFTISRDTLTKTMWLQMNNLKPEDTAMYYCAAEDYGLGQRSWGMGTQVTVSS
22 | 0.0074 OD450 | M156 (VHH) VHH: QVQLVESGGGLVQAGGSLRLSCAVSGISFEYYAIGWFRQAPGKEREAVSCTTSGTTSGGGVTDYADSLKGRFTISRDVAKNTVYLQMNNLTPEDTAVYYCAADIHCRGYVLFVPSDFGNWGQGTQVTVSS
23 | 0.007 OD450 | M132 (VHH) VHH: QVQLVESGGGLVQAGGSLSLSCVASGDAFSFDAMGWYRQFSGKVNERQLVVATSRDGRTAYGERVKGRFTASRDNSKNTLSLVMNNLQVEDTAIYYCAAGDDPKDYYWGQGTQVTVSS
24 | 0.0074 OD450 | M191 (VHH) VHH: QVQLVESGGGLVQAGGSLRLSCAASASMGSISNMGWYRQAPGKERGNERNLVATIGSDGRTYYADSVKGRFTISRDNVKNTMILQMNFLKPEDTAMYYCAVEDRQRPGTENYYWGQGTQVTVSS
25 | 0.007 OD450 | M169 (VHH) VHH: EVQLVESGGGTVQPGESLRLSCEASGAVSTINAMGWYRQTPEMRKLVATMGSGGNTYYADSVKGRFTISRDFAGNTVDLQMNDLKPEDTGVYFCAADKFGADIKEVAYWGKGTLVTVSS
26 | 0.0104 OD450 | M003 (VHH) VHH: QVQLVESGGGLVQAGGSLRLSCTASGNIFSINAMGWYRQPPGKEWERELVATISSTNSDNTYYKESVKGRFTISTNTAKNTWYLQMNSLKPEDTAMYYCAAENFDRKDRYWAQGTQVTVSS
27 | 0.0074 OD450 | M197 (VHH) VHH: EVQLVESGGGLVQAGGSLRLSCAASGSHFGLNVVGWYRQAPGKQRELVASIGNSGRTTDYADSVKGRFTISKDNAQNTIYLQMNNLKPEDTAMYRCHLRVSVERGYWGQGTQVTVSS
28 | 0.0479 OD450 | M2339 (VHH) VHH: QLQLGASGGGLVQPGGSLRLSCALSGFTLRELDEFAIGWFRQAPGKEREGVSCISGTGGITHYADSVKGRFTISRDIAKTTVYLQMNSLNSEDTAVYYCAADERCTDRLIRPPTYWGQGTQVTVSS
29 | 0.0074 OD450 | M118 (VHH) VHH: EVQLVESGGGLVQAGGSLTLSCAASEHTFTIDAMGYYRQIPGRRNERQLVAAAGRTGTTYYNDAVKDRFTIYRDTSKETIILQMNNLRPEDTTMYYCAVERYSDQSRFFGPGTQVTVSS
30 | 0.0085 OD450 | M004 (VHH) VHH: EVQLVESGGGLVQAGGSLRLSCAASESISSIAYMGWYRRISEKERNLVATISSTGSTYYADSVKGRFTISRDNAKNTMYLQMNRLKPEDTAIYYCAASNKAYNDYDPDWGQGTQVTVSS
31 | 0.0099 OD450 | M050 (VHH) VHH: EVQLQESGGGLVQAGGSLRLSCAASGAVSSINAMGWYRQTPEKVRKLVATMGSGGNTYYADSVKGRFTISRDYAKNTVALQMNNLIPEDTAVYYCAADKFGADIHEVDYWGKGTLVTVSS
